Experimental data published in the RNAGym collection of RNA variant scans (doi:10.1073/pnas.2313332121).
Variants at the floor of the assay were thinned out.

B1: TPR 5TU (parent)
chain: GGAUCUUCUCGAUCUAACAAAAAAGACAAAUCUGCCACAAAGCUUGAGAGCAUCUUCGGAUGCAGAGGCGGCAGCCUUCGGUGGCGCGAUAGCGCCAACGUUCUCAACUAUGACACGCAAAACGCGUGCUCCGUUGAAUGGAGUUUAUCAUG

Variants of: B1
Assay: polymerase ribozyme fitness, log enrichment relative to wild type (log ratio); higher = more active; in vitro selection for triplet polymerase activity
Summary of the method: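 A single round of triplicate in vitro selection, including frozen incubation at −7 °C, was applied to PCR-built, transcribed mutant libraries of each subunit of a heterodimeric triplet polymerase ribozyme. Illumina sequencing of input and output libraries retained genotypes with ≥10 input reads and ≥1 read per output. Fitness is the base-2 logarithm of genotype enrichment divided by wild-type enrichment, from inverse-variance-weighted replicate averages.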

| Variant | polymerase ribozyme fitness (log ratio) |
| --- | --- |
| GGAUCUUCUCGAUCUAACAAAAAAGACACAUUUGGCACAAAGCUUGAGAGCAUCUUCGGAUGCAGUGGCGGCAGCCUUCGGUGGCGAGAUAGCCCCAACGUUCUCAUCUAUGACACGCAAAACGUGUGCUCCGUUGAAUGGAGUUUAUCAUG | ≤ -4.2 |
| GGAUCUUCUCGAUCUAUCAAAAAAGACAAAUCUGUCACAAAGCUUGAGAGCAUCUUCGGAUGCAGAGGCGGCAGCCUUCGGUGGCGCGAUAGCGCCUACGUUCUCAACUAUGACACGCAAAACGCGUGCUCCGUUGAAUGAAGUUUAUCAUG | -1.34 |
| GGAUCUUCUCGAUCUAACAAAAAAGACAAAUCUGCCACAAAGCUUGAGAUCAUCUUCGGAUGCAGAGGCGGCAGCCUUCGGUGGCGCGAUAGGGCCAACGUUCUCAACUAUGACACGCAAAACGCGUGCUCCGUUGAAUGGAGUUUAUCAUG | -3.35 |
| GGAUCAUCUCGAACUAACAAAAAAGACAAAUCUGGCACAAAGCUUGAGAGCAUCUUCGGAUGCAGAGGCGGCAGCCUUCGGUGGCGCGAUAGCGCCAACGUUCUCAACUGUGACACGCAAAACGCGUGCUCCGUUGAAUGGGGUUUAUCAUG | -3.55 |
| GGAGCUUCUCGAUCUAACAAAAAAGACAAAUCUGCCACAAAGCUUGAGAGCAUCUUCGGAUGCAGAGGCGGCAGCCUUCGGUGUCGCGAUAGCGCCAACGUUCUCAUCUAUGACACGCAAAACGCGUGCUCCGUUGAAUAGAGUUUAUCAUG | ≤ -4.2 |
| GGAUCUUCUCGAUCUACCAAAAAAGAUAAAUCUGCCAAAAAGCUUGAGAGCAUCUUCGGAUGCAGAGGCGGCAGCCUUCGGUGGUGCGAUAGCGCCAACGUUCUCAACUAUGACACGCAAAACGCGUGCUCCGUUGAAUGGAGUUUAUCAUG | -0.305 |
| GGAUCUUCUCGAUCUAACAAAAAAGACAAAUCUGCCACAAAGCUUGAGAGCAUCUUCGGAUGCAGAGGCGGCAGCUGUCGUUGGCGCGAUAACGCCAACGUUCUCAACUAUGACACGCAAAAAGCGUGCUCCGUUGAAUGGAGUUUAUCAUG | ≤ -4.2 |
| GGAUCUUCUCGAUCUAACAAAAAAGACAAAUCUGCCACAAAGCUUGAGAGCAUCUUCGAAUGCAGAGGCGGCAGCCUUCGGUGGUGCGAUAGCGCCAACGUUCUCAACUAUGACACGCAAAACGCGUGCUCCGUUGAAUGGAGUUUAUGAUG | -3.59 |
| GGAUCUUCUCGAUCUAACAAAAAAGACAAAUCUGCCACAAAGCUUGAGAGCAUCUUCGGAUGCAGAGGCGGCAGCCUUCGGUGGCGCGAUAGCGCCAAAGUUCUCAACUAUGACACGCAAAACGCGUGCUCCGUUGAAUGGAGUUGAUCAUG | -1.41 |
| GGAUCUUCUCGAUCUAACAAAAAAGACAAAUCUGCCACAAAGCUUGUGAGCAUCUUCGGAUGCAGAGGCGGCAGCCUUCGCUGGGUCGAUAGCGUCAACGUUCUCCACUAUGACACGCAAAACGCGUGCUCCGUUGAAUGGAAUUUAUCAUG | ≤ -4.2 |
| GGAUCUUCUCGAUCUAACAAAAAAGACAAAUCUGCCACAAAGCUUGAGAGCAUCUUCGGAUGCAGAGACGGCAGACUUCGGUGGCGCGAUAGCGCCAACGUUCUCAACUAUGACACGCAAAACGCGUACUCCGUUGAAUGGAGUUUAUCCUG | ≤ -4.2 |
| GGAUCUUCUCGAUCUAACAAAAAAGACAAAUCUGCCACAAAGCUUGAGAGCAUCUUCGGAUGCAGAGGCGGCAGCCUUCGGUGUCGCGAUAGCGCUAACGUUCUCAACUAUGACACGCAAAGCGCGUGCUCCGUUGAAUGGAGUUUAUGAUG | ≤ -4.2 |
| GGAUCUUCUCGAUCUAGCAAAAACGACAAAUCUGCCACAAUGCUUGAGAGCAUCUUCGGAUGCAGAGGCGGCAGCCUUCGGUGGCGCGAUUGCGCCAGCGUUCUCAACUAUGACACGCAAAACGCGUGCUCCGUUGAAUGGAGUUUAUCAUG | ≤ -4.2 |
| GGUUCUUCUCGAUCUAACAUAAAAGACAAAUUUGCCACAAAGCUUGAGAGCAUCUUCGGAUGCAGAGGCUGCAGCCUUCGGUGUCGCGAUAGCGCCAACGUUCUCAACUAUGACACGCACAACGCGUGCUCCGUUGAAUGGAGUUUAUCAUG | ≤ -4.2 |
| GGAUCUUCUCGAUCUAACAAACAAGAUAAAUCUGCCACAAAGCUUGAGAGCAUUUUCGGAUGCAGAGGCGGCAGCCUUCGGUGGGGCGAUUGCGCCAACGUUCUCAACUAUAACACGCUAAACGCGUGCUCCGUUGAAUGGAGUUUCUCCUG | ≤ -4.2 |
| GGAUCUUCUCGAUCUAACAAAAAAGACAAAUCUGCCACAAAGCUUGAGAGCAUCUUCGGAUGCAGAGGCGGCAGCCUUCGGUGGCGCGAUAGCGCCAACGUUCUCAACUAUGACACGAAAAACGCGUGCUCCGUUGAAUGGAGUUUAUCAUG | -0.751 |
| GGAGCUUCUUGAUCUAACAAAAAAGACAAAUCUGCCACAAAGCUUGAGAGCAUCUUCGGAUGCAGAGGCGGCAGCCUUCGGUUGCGCGAUAGCGCCAUCGUUCUUAACUAUGACACGCAAAACGCGUGCUCCGUUGAAUGGAGUUUAUCAUG | -0.982 |
| GGAUCUUCUCGAUCUAACUAAAAAGACAAAUCUGCCACAAAGCUUGAGAGCAUCUUCCGAUGCAGAGGCGGCAGCCUUCGGUGGCGUGAUAGCGUCAACGUUCUCAACUAUGACAGGCAAAACGCGUGCUCCGUUGAAUGGAGUUUAUCAUG | -1.52 |
| GGAUCUUCUCGAUCUAACAAGAAAGACAAAUCUGCUACAAAGCUUGAGAGCAUCUUAGGAUGCAGAGGCGGCAGCCUUCGGUGGCGCGAUAGCGCCAACGUUCUCAACUAUGACACGCAAAACGCGUGCUCCGUUGAAUGGAGUUUAUCAUG | -0.735 |

| Variant | polymerase ribozyme fitness (log ratio) |
| --- | --- |
| GGAUCUUCUCGAUCUAACAAAAAAGACAAAUCUGCCACAAAGCUUGAGAGCAUCUUCGGAUGCAGAGGCGGCAGCCUUCGGUGGUGCGAUAGCGCCAAUGUUCUCAACUAUGACACGCAAAACGCGUGCUCCGUUGAAUGGAGUUUAUCAUG | -2.35 |
| GGAUCUUCUCGAUCUAACCAAAAAGACAAGUCUGCCACAAAGCUUGAGAGCAUCUUCGGAUGCAGAGGCGGCAGCCUUCGGUGGCGUGAUAGCGCCAACGUUCUCAACUAUGACACGCAAAACGCGUCCUCCGUUUAAUGGAGUUUAUCAUG | ≤ -4.2 |
| GGAUCUUCUCGAUCUAACAAACAAGACAUAUCUGCCACAAGGCUUGAGACCAUCUUCGGAUGCAGAGGCGGCAGCCAUCGGUGGUGCGAUAGGGCCAACGUUCUCAACUAUGACACGCAAAACGCGUGCUCCGUUGAAUGCAGUUUAUCAUG | ≤ -4.2 |
| GGAUCUUCUCGAUCUAACAAAAAAGACAAAUCUGCCACAACGCUUGAGAGUAUCUUCGGAUGCAGAGGCGGCAGCCUUCGGUGGCGCGAUAGCGCCAACGUUCUCAACUAUGACACGCAAAACGCGUGCUCCGUUGAAUGGAGUUUAUCAUG | -0.722 |
| GGAUCUUCUCGAUCUAACAAAAAAGACAAAUCUGCCACAAAGCUUGAGAGCAUCUUCGGAUGCAGAGGCGGCAGCCAUCGGUGGCGCGAUAUCGCCAAGGUUCUCAACUAUGACACGCAAAACGCGUGCUCCGUUGAAUGGAGUUUAUCAUG | -4.06 |
| GGAUCUUCUCGAUCUAACAAAAAAGACAAAUCUGCCACAAAGCUUGAGAGCAGCUUCGGAUGCAGAGGCGGCAGCCUUCGGUGGCGCGAUAGCGCCAACGUUCUCAACUAUGACACGCAAAACGCGUGCUCCGUUGAAUGCAGUUUAUCAUG | -2.53 |
| GGAUCUUCUCGAUCUAACAAAAAAGACAAAUCUGCCACAAAGCUUGAGAGCAUCUUCGGAUGCAGGGGCGGCAGCCUUCGGUGGCGCGAUAGCGCUAACGUUCUCAACUAUGACACGCAAAACGCGUGCUCCGUUGAUUGGAGUUUAUCAAG | ≤ -4.2 |
| GGAUCUUCUCGAUCUAACAAAAAAGACAAAUCUGCCACAAAGCUUCAAAGCAUCUUCGGAUGCAGAGGCGGCUGCCCUCUGUGGCGUGAUAGCGCCAACGUUCUCAACUAUGACACGCAAAACGCGUGCUCCGUUGAAUGGAGUUUAUCAUG | -3.85 |
| GGAUCUUCUCGAUCUAACAAAAAAGACAAAUCUGCCACAAAGCUUGAGAGCAUCUUCGGAUGCAGAGGCGGCAGCCUUCGGUGGCUCGAUCGCGCCAAGGUUCUCAACGAUGACACGCAAAACGCGUGCUCCGUUGAAUGGAGUUUAUCAUG | ≤ -4.2 |
| GGAUCUUCUCGAUCUAACAAAAAAGACAAAUCUGCCACAAAGCUUGAGAGCAUCUUCGGAUGCAGAGGCGGCAGCCUUCGGUGGCGCGAUAGCGCCAACGUUCUCAACUAUGACAGGCAAAACCCGUGCUCCGUUGAAUGGAGUUUACCAUG | ≤ -4.2 |
| GGAUCUGCUCGAUCUAACCAAAAAGACAAAUCUGCCACAGAGCUUGAGAGCAUCUACGGAUGCAGAGGCGGCAGCCUUCGGUGGCGCGAUAGCGCCAACGUUCUCAACUAUGACACGCAGAACGCGUGCUCCGUUGAAUGGAGUUUAUCCUG | ≤ -4.2 |
| GGAUCUUCUCGAUCUAACAAAAAAGACAAAUCUACCACAAAGCUUGAGAGCAUCUUCGGAUGCAGAGGCGGCAGCCUGCGGUGGCUCGAUAGCGCCAACGUUCUCGACUAUGACGCGCAGAACGCGUGCUCCGUUGAAUGGAGUUUAUCAUG | ≤ -4.2 |
| GGAUCUUCUCGAUCUAACAAAAAAGACAAAUCUGCCACAAAGCGUGAGAGCAUCUUCGGAUGCAGAGGCGGCUGCCUUCGGUGGAGCGAUAGCGCCAAUGUUCUCAACUAUGACACGCAAAACGCGUGCUCCGUUGAAUGGCGUUUAUCAUG | ≤ -4.2 |
| GGAUCUUAUCGAUCUAACAGAAAAGACAAAUCUGCCACAAAGCUUGAGAGCAUCUUCGGAUGCAGAGCCGGCAGCCUUCGGUGGAGCGAUAGCGCCAACGUUCUCAACUAUGACACGCAAAACGCAUGCUCCGUUGAAUGGAGUUUAUCAUG | ≤ -4.2 |
| GGAUCUUCUCGAUCUAACAAAAAAGACAAAUCUGCCACAAAGCUUGACAGCAUCUUCGGAAGCAGAGGCGGCAGCCAUCGGUGGCGCGAUAGCGCCAACGUUCUCAACUAUGACACGCAAAACGUGUGCUCCGUUGAAUGGAGAUUAUCAUG | ≤ -4.2 |
| GGAUCUCCUCGAUCUUACAAAAAAGACAAAUCUGCCACAAAGCUUGAGAGCAUCUUCGGAUGCAGAGGCGGCAGCCUUCGGUGGCGCGAUACCGCCAACGUUCUCAACUAUGACAGGCAAAACGCGUGCUCCGUUGAAUGGAGUUUAUCAUG | -3.77 |
| GGAUCUUCUCGAUCUAACAAAAAAGACAAAUCUGCCACAAAGCUUGAGAACAUCUUCGGAUGCAGAGGCGGCUGCCUUCGGUGGCGCGAUAGCGCGAUCGUUCUCAACUAUGACACGCAUAACGCGUGCUCCGUUGGAUGGAGUUUAUCAUG | ≤ -4.2 |
| GGAUCUUCUCGAUCUAAGAAAAAAGACAAAUCUGCCACAAAGCUUGAGAGCAUCUUCGGAUGCAGAGGCGGCAGCCUUCGGUGUCGCGAUAGCGCCAACGUUCUCAACUAUGACACUCAAGACGCGUGCUCCGUUGAAUGGAGUUUAUCAUG | -2.06 |
| GGAUCUUCUCGAUCUAACAAAAAUGACAAAUCUGCCACAAAGCUUGAGAGCAUCUUCGGAUGCAGAGGCGGUAGCCUUCGGUGUCGCGAUAGCGCCAACGUUCUCAACUAUGACACGUAAAACGCGUGCUCCGUUGAAUGGGGUUUAUCAUG | -3.98 |
